Measured values taken from the supplement of paper PMC7877785.
± gives the uncertainty stated by the source.

Experiment: self-splicing fitness, log relative to wild type (ln ratio); higher = more splicing; Tetrahymena group I intron in knt gene, E. coli kanamycin selection, DiMSum; sequences stand for … in CUCUCU…GGAGGGAAAAGUUAUCAGGCAUGCACCUGGUAGCUAGUCUUUAAACCAAUAGAUUGCAUCGGUUUAAAAGGCAAGACCGUCAAAUUGCGGGAAAGGGGUCAACAGCCGUUCAGUACCAAGUCUCAGGGGAAACUUUGAGAUGGCCUUGCAAAGGGUAUGGUAAUAAGCUGACGGACAUGGUCCUAACCACGCAGCCAAGUCCUAAGUCAACAGAUCUUCUGUUGAUAUGGAUGCAGUUCACAGACUAAAUGUCGGUCGGGGAAGAUGUAUUCUUCUCAUAAGAUAUAGUCGGACCUCUCCUUAAUGGGAGCUAGCGGAUGAAGUGAUGCAACACUGGAGCCGCUGGGAACUAAUUUGUAUGCGAAAGUAUAUUGAUUAGUUUUGGAGUACUCGUGGUCG
Method in brief: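 DiMSum derived fitness as the error-weighted combination of fold changes across replicates, kanamycin versus no kanamycin, normalised to wild type. E. coli BL21(DE3) held the library, which randomised all eight P1ex-region intron nucleotides within the knt kanamycin-resistance gene on pET-22b(+). Six replicate transformations grew overnight at 37°C or 30°C on LB agar with or without 25 μg/mL kanamycin, also containing 100 μg/mL carbenicillin, 50 μM IPTG and 0.2% rhamnose, and pooled colonies were amplicon-sequenced on an Illumina HiSeq 2500.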

Row | Sequence | self-splicing fitness (ln) (30 °C) | self-splicing fitness (ln) (37 °C)
1 | CAAGAGCAAUAUUACGGAAA | -2.9 ± 0.22 | -2.82 ± 0.22
2 | CAAGAGCAAUAUUACGGAGU | -3.12 ± 0.18 | -2.55 ± 0.22
3 | CAAGAGCAAUAUUACGGCCG | -0.899 ± 0.13 | -0.536 ± 0.17
4 | CAAGAGCAAUAUUACGGGCG | -0.815 ± 0.1 | -0.188 ± 0.12
5 | CAAGAGCAAUAUUACGGGGA | -3.21 ± 0.32 | -2.67 ± 0.28
6 | CAAGAGCAAUAUUACGGUCA | -2.4 ± 0.19 | -2.45 ± 0.23
7 | CAAGAGCAAUAUUACGUACG | -0.91 ± 0.084 | 0.0935 ± 0.11
8 | CAAGAGCAAUAUUACGUAGA | -3.55 ± 0.17 | -2.76 ± 0.24
9 | CAAGAGCAAUAUUACGUCCG | -1.66 ± 0.087 | -0.696 ± 0.13
10 | CAAGAGCAAUAUUACGUGAU | -3.6 ± 0.21 | -2.34 ± 0.22
11 | CAAGAGCAAUAUUACGUGGA | -3.87 ± 0.28 | -2.43 ± 0.15
12 | CAAGAGCAAUAUUACGUUAC | -2.55 ± 0.12 | -2.71 ± 0.23
13 | CAAUAGCAAUAUUACGAAGA | -3.96 ± 0.39 | -1.31 ± 0.2
14 | CAAUAGCAAUAUUACGACGA | -2.18 ± 0.22 | -1.24 ± 0.14
15 | CAAUAGCAAUAUUACGAGUA | -2.31 ± 0.21 | -2.38 ± 0.2
16 | CAAUAGCAAUAUUACGAGUU | -3.64 ± 0.2 | -2.19 ± 0.2
17 | CAAUAGCAAUAUUACGAUAG | -0.926 ± 0.069 | -0.00227 ± 0.1
18 | CAAUAGCAAUAUUACGAUCC | -2.68 ± 0.46 | –
19 | CAAUAGCAAUAUUACGCCUG | -0.752 ± 0.075 | 0.366 ± 0.088
20 | CAAUAGCAAUAUUACGCGGG | -3.11 ± 0.16 | -1.75 ± 0.12
21 | CAAUAGCAAUAUUACGCGUC | -4.09 ± 0.25 | -3 ± 0.22
22 | CAAUAGCAAUAUUACGCUUU | -4.34 ± 0.27 | -2.2 ± 0.19
23 | CAAUAGCAAUAUUACGGUCC | -3.21 ± 0.38 | -2.34 ± 0.39
24 | CAAUAGCAAUAUUACGGUUA | -1.4 ± 0.12 | -1.24 ± 0.1

Row | Sequence | self-splicing fitness (ln) (30 °C) | self-splicing fitness (ln) (37 °C)
25 | CAAUAGCAAUAUUACGUAUU | -3.25 ± 0.21 | -2.65 ± 0.18
26 | CAAUAGCAAUAUUACGUCAU | -3.6 ± 0.14 | -2.88 ± 0.17
27 | CAAUAGCAAUAUUACGUCGU | -3.95 ± 0.23 | -2.49 ± 0.19
28 | CAAUAGCAAUAUUACGUGGU | -3.82 ± 0.17 | -2.53 ± 0.18
29 | CACAAGCAAUAUUACGAACA | -2.61 ± 0.18 | -1.72 ± 0.12
30 | CACAAGCAAUAUUACGAGCU | -3.48 ± 0.24 | -3.29 ± 0.3
31 | CACAAGCAAUAUUACGAGGG | -2.28 ± 0.12 | -2.48 ± 0.14
32 | CACAAGCAAUAUUACGAUUU | -4.17 ± 0.18 | -2.56 ± 0.15
33 | CACAAGCAAUAUUACGCACU | -2.4 ± 0.13 | -1.33 ± 0.11
34 | CACAAGCAAUAUUACGCAGG | -2.65 ± 0.15 | -1.01 ± 0.13
35 | CACAAGCAAUAUUACGCAGU | -3.4 ± 0.2 | -2.37 ± 0.16
36 | CACAAGCAAUAUUACGCAUC | -3.19 ± 0.18 | -2.29 ± 0.18
37 | CACAAGCAAUAUUACGCAUU | -2.9 ± 0.096 | -2.5 ± 0.14
38 | CACAAGCAAUAUUACGCGCG | -0.772 ± 0.066 | -0.607 ± 0.071
39 | CACAAGCAAUAUUACGCUAA | -2.58 ± 0.18 | -1.82 ± 0.16
40 | CACAAGCAAUAUUACGCUCC | -1.93 ± 0.16 | -1.66 ± 0.22
41 | CACAAGCAAUAUUACGGGAA | -3.21 ± 0.16 | -2.79 ± 0.17
42 | CACAAGCAAUAUUACGUAAG | -0.372 ± 0.047 | 0.157 ± 0.065
43 | CACAAGCAAUAUUACGUAGA | -1.83 ± 0.081 | -1.73 ± 0.11
44 | CACAAGCAAUAUUACGUGGG | -3.94 ± 0.16 | -2.42 ± 0.12
45 | CACAAGCAAUAUUACGUGGU | -4.1 ± 0.17 | -2.66 ± 0.19
46 | CACAAGCAAUAUUACGUUCG | -0.461 ± 0.048 | 0.012 ± 0.06
47 | CACAAGCAAUAUUACGUUGC | -3.28 ± 0.1 | -2.66 ± 0.13
48 | CACCAGCAAUAUUACGAACA | -3.14 ± 0.17 | -0.953 ± 0.14

Row | Sequence | self-splicing fitness (ln) (30 °C) | self-splicing fitness (ln) (37 °C)
49 | CACCAGCAAUAUUACGACAA | -2.61 ± 0.23 | -2.73 ± 0.2
50 | CACCAGCAAUAUUACGACUU | -3.4 ± 0.14 | -2.69 ± 0.13
51 | CACCAGCAAUAUUACGAGCC | -3.37 ± 0.27 | -2.92 ± 0.32
52 | CACCAGCAAUAUUACGAGUA | -1.04 ± 0.06 | -0.515 ± 0.066
53 | CACCAGCAAUAUUACGAUAG | -0.377 ± 0.057 | 0.0494 ± 0.064
54 | CACCAGCAAUAUUACGAUGU | -3.07 ± 0.12 | -0.91 ± 0.085
55 | CACCAGCAAUAUUACGCACG | -0.655 ± 0.045 | 0.0962 ± 0.062
56 | CACCAGCAAUAUUACGCCAC | -3.58 ± 0.16 | -2.42 ± 0.17
57 | CACCAGCAAUAUUACGCCUA | -2.37 ± 0.16 | -1.52 ± 0.17
58 | CACCAGCAAUAUUACGCUCA | -1.42 ± 0.12 | -1.13 ± 0.17
59 | CACCAGCAAUAUUACGGAAA | -1.63 ± 0.1 | -2.03 ± 0.14
60 | CACCAGCAAUAUUACGGACA | -2.01 ± 0.1 | -0.603 ± 0.086
61 | CACCAGCAAUAUUACGGCCU | -2.6 ± 0.16 | -1.93 ± 0.16
62 | CACCAGCAAUAUUACGGCUC | -1.44 ± 0.075 | -0.828 ± 0.087
63 | CACCAGCAAUAUUACGGGAG | -2.61 ± 0.067 | -1.26 ± 0.076
64 | CACCAGCAAUAUUACGGGCA | -1.29 ± 0.069 | -0.343 ± 0.081
65 | CACCAGCAAUAUUACGGGUA | -0.28 ± 0.045 | -0.404 ± 0.055
66 | CACCAGCAAUAUUACGGGUC | -2.54 ± 0.07 | -2.17 ± 0.092
67 | CACCAGCAAUAUUACGGUGU | -3.39 ± 0.11 | -1.82 ± 0.12
68 | CACCAGCAAUAUUACGUAAC | -2.87 ± 0.13 | -0.914 ± 0.14
69 | CACCAGCAAUAUUACGUGAC | -4.86 ± 0.26 | -2.34 ± 0.21
70 | CACCAGCAAUAUUACGUGUG | -4.45 ± 0.17 | -3.63 ± 0.19
71 | CACCAGCAAUAUUACGUUAC | -4.48 ± 0.26 | -2.45 ± 0.18
72 | CACGAGCAAUAUUACGAGCG | -0.857 ± 0.086 | -1.33 ± 0.1

Row | Sequence | self-splicing fitness (ln) (30 °C) | self-splicing fitness (ln) (37 °C)
73 | CACGAGCAAUAUUACGAGGG | -3.64 ± 0.25 | -3.25 ± 0.33
74 | CACGAGCAAUAUUACGAUAC | -3.07 ± 0.24 | -2.73 ± 0.36
75 | CACGAGCAAUAUUACGAUGU | -3.52 ± 0.18 | -3.49 ± 0.24
76 | CACGAGCAAUAUUACGAUUA | -3.34 ± 0.31 | -2.12 ± 0.25
77 | CACGAGCAAUAUUACGAUUG | -2.19 ± 0.11 | -1.6 ± 0.13
78 | CACGAGCAAUAUUACGAUUU | -3.18 ± 0.18 | -1.99 ± 0.13
79 | CACGAGCAAUAUUACGCAUA | -3.1 ± 0.15 | -2.61 ± 0.18
80 | CACGAGCAAUAUUACGCGGU | -3.13 ± 0.15 | -3.5 ± 0.24
81 | CACGAGCAAUAUUACGCUUA | -2.83 ± 0.32 | -0.611 ± 0.12
82 | CACGAGCAAUAUUACGGCCC | -3.09 ± 0.28 | -2.95 ± 0.36
83 | CACGAGCAAUAUUACGGCCG | -0.354 ± 0.094 | -0.105 ± 0.13
84 | CACGAGCAAUAUUACGGCGA | -3.28 ± 0.19 | -2.69 ± 0.26
85 | CACGAGCAAUAUUACGGCUG | -1.39 ± 0.089 | -0.237 ± 0.11
86 | CACGAGCAAUAUUACGGGAC | -3.36 ± 0.2 | -2.55 ± 0.23
87 | CACGAGCAAUAUUACGGGUU | -3.2 ± 0.16 | -2.81 ± 0.22
88 | CACGAGCAAUAUUACGUAGG | – | -1.83 ± 0.21
89 | CACGAGCAAUAUUACGUCGA | -2.23 ± 0.35 | -2.81 ± 0.26
90 | CACGAGCAAUAUUACGUGAU | -3.91 ± 0.14 | -2.05 ± 0.14
91 | CACUAGCAAUAUUACGAAGC | – | -2.83 ± 0.35
92 | CACUAGCAAUAUUACGACAG | -0.114 ± 0.076 | 0.0358 ± 0.079
93 | CACUAGCAAUAUUACGAGGG | -3.29 ± 0.18 | -1.34 ± 0.15
94 | CACUAGCAAUAUUACGCAAC | – | -2.5 ± 0.29
95 | CACUAGCAAUAUUACGCAGG | -3.27 ± 0.12 | -1.26 ± 0.15
96 | CACUAGCAAUAUUACGCGCU | -3.62 ± 0.16 | -2.09 ± 0.14
